Experimental data: US20240391954A1, “MC4R AGONIST PEPTIDES” (The Regents of the University of Michigan, priority 2021, published 2024)
Positions of bridges follow the written chain, without caps; N, C: chain ends. Non-standard residues stand in square brackets, D forms with d. dPhe(4-Br) = N[C@H](Cc1ccc(Br)cc1)C(=O)O; dPhe(4-I) = N[C@H](Cc1ccc(I)cc1)C(=O)O; d(αMeF) = C[C@@](N)(Cc1ccccc1)C(=O)O; d(hPhe) = N[C@H](CCc1ccccc1)C(=O)O; NMeR = CN[C@@H](CCCNC(=N)N)C(=O)O; Cit = NC(=O)NCCC[C@H](N)C(=O)O; NMeA = CN[C@@H](C)C(=O)O; Nle = CCCC[C@H](N)C(=O)O; Aib = CC(C)(N)C(=O)O

B1: CTX-1230 (peptide)
peptide: Ac-R[Nle]CR[dPhe(4-Br)]RWC-NH2
modifications: disulfide 3-8
SMILES: CCCC[C@H](NC(=O)[C@H](CCCNC(=N)N)NC(C)=O)C(=O)N[C@H]1CSSC[C@@H](C(N)=O)NC(=O)[C@H](Cc2c[nH]c3ccccc23)NC(=O)[C@H](CCCNC(=N)N)NC(=O)[C@@H](Cc2ccc(Br)cc2)NC(=O)[C@H](CCCNC(=N)N)NC1=O
B2: CTX-1232 (peptide)
peptide: Ac-R[Nle]CR[dPhe(4-Br)]R[dW]C-NH2
modifications: disulfide 3-8
SMILES: CCCC[C@H](NC(=O)[C@H](CCCNC(=N)N)NC(C)=O)C(=O)N[C@H]1CSSC[C@@H](C(N)=O)NC(=O)[C@@H](Cc2c[nH]c3ccccc23)NC(=O)[C@H](CCCNC(=N)N)NC(=O)[C@@H](Cc2ccc(Br)cc2)NC(=O)[C@H](CCCNC(=N)N)NC1=O
B3: CTX-1229 (peptide)
peptide: Ac-R[Nle]CH[dPhe(4-Br)]RWC-NH2
modifications: disulfide 3-8
SMILES: CCCC[C@H](NC(=O)[C@H](CCCNC(=N)N)NC(C)=O)C(=O)N[C@H]1CSSC[C@@H](C(N)=O)NC(=O)[C@H](Cc2c[nH]c3ccccc23)NC(=O)[C@H](CCCNC(=N)N)NC(=O)[C@@H](Cc2ccc(Br)cc2)NC(=O)[C@H](Cc2c[nH]cn2)NC1=O
B4: CTX-1214 (peptide)
peptide: Ac-RC[dA]R[dPhe(4-Br)]R[dW]C-NH2
modifications: disulfide 2-8
B5: CTX-1612 (peptide)
peptide: Ac-R[Nle]CR[dPhe(4-Br)]RWC-NH2
modifications: disulfide 3-8
SMILES: CCCC[C@H](NC(=O)[C@H](CCCNC(=N)N)NC(C)=O)C(=O)N[C@H]1CSSC[C@@H](C(N)=O)NC(=O)[C@H](Cc2c[nH]c3ccccc23)NC(=O)[C@H](CCCNC(=N)N)NC(=O)[C@@H](Cc2ccc(Br)cc2)NC(=O)[C@H](CCCNC(=N)N)NC1=O
B6: CTX-1277 (peptide)
peptide: Ac-RC[dA]R[d(hPhe)]R[dW]C-NH2
modifications: disulfide 2-8
B7: CTX-1239 (peptide)
peptide: Ac-RC[dA]R[d(hPhe)]R[dW]C-NH2
modifications: disulfide 2-8
SMILES: CC(=O)N[C@@H](CCCNC(=N)N)C(=O)N[C@H]1CSSC[C@@H](C(N)=O)NC(=O)[C@@H](Cc2c[nH]c3ccccc23)NC(=O)[C@H](CCCNC(=N)N)NC(=O)[C@@H](CCc2ccccc2)NC(=O)[C@H](CCCNC(=N)N)NC(=O)[C@@H](C)NC1=O
B8: CTX-1216 (peptide)
peptide: Ac-RC[dA]R[dPhe(4-Br)]R[dW]CKPV-NH2
modifications: disulfide 2-8
SMILES: CC(=O)N[C@@H](CCCNC(=N)N)C(=O)N[C@H]1CSSC[C@@H](C(=O)N[C@@H](CCCCN)C(=O)N2CCC[C@H]2C(=O)N[C@H](C(N)=O)C(C)C)NC(=O)[C@@H](Cc2c[nH]c3ccccc23)NC(=O)[C@H](CCCNC(=N)N)NC(=O)[C@@H](Cc2ccc(Br)cc2)NC(=O)[C@H](CCCNC(=N)N)NC(=O)[C@@H](C)NC1=O
B9: CTX-1234 (peptide)
peptide: Ac-[Nle]CH[dPhe(4-I)]R[dW]C-NH2
modifications: disulfide 2-7
SMILES: CCCC[C@H](NC(C)=O)C(=O)N[C@H]1CSSC[C@@H](C(N)=O)NC(=O)[C@@H](Cc2c[nH]c3ccccc23)NC(=O)[C@H](CCCNC(=N)N)NC(=O)[C@@H](Cc2ccc(I)cc2)NC(=O)[C@H](Cc2c[nH]cn2)NC1=O
B10: CTX-1286 (peptide)
peptide: Ac-RC[dA][Cit][dF]R[dW]C-NH2
modifications: disulfide 2-8
B11: CTX-1287 (peptide)
peptide: Ac-RCA[Cit][dF]RWC-NH2
modifications: disulfide 2-8
B12: CTX-1281 (peptide)
peptide: Ac-RC[dA]R[dF][Cit][dW]C-NH2
modifications: disulfide 2-8
B13: CTX-1284 (peptide)
peptide: Ac-RC[dA]R[dF][NMeR][dW]C-NH2
modifications: disulfide 2-8
SMILES: CC(=O)N[C@@H](CCCNC(=N)N)C(=O)N[C@H]1CSSC[C@@H](C(N)=O)NC(=O)[C@@H](Cc2c[nH]c3ccccc23)NC(=O)[C@H](CCCNC(=N)N)N(C)C(=O)[C@@H](Cc2ccccc2)NC(=O)[C@H](CCCNC(=N)N)NC(=O)[C@@H](C)NC1=O
B14: CTX-1270 (peptide)
peptide: Ac-RC[Aib]R[dF][Cit]WC-NH2
modifications: disulfide 2-8
B15: CTX-1278 (peptide)
peptide: Ac-RC[dA]R[d(αMeF)]RWC-NH2
modifications: disulfide 2-8
SMILES: CC(=O)N[C@@H](CCCNC(=N)N)C(=O)N[C@H]1CSSC[C@@H](C(N)=O)NC(=O)[C@H](Cc2c[nH]c3ccccc23)NC(=O)[C@H](CCCNC(=N)N)NC(=O)[C@@](C)(Cc2ccccc2)NC(=O)[C@H](CCCNC(=N)N)NC(=O)[C@@H](C)NC1=O
B16: CTX-1269 (peptide)
peptide: Ac-RC[NMeA]R[dF]R[dW]C-NH2
modifications: disulfide 2-8
SMILES: CC(=O)N[C@@H](CCCNC(=N)N)C(=O)N[C@H]1CSSC[C@@H](C(N)=O)NC(=O)[C@@H](Cc2c[nH]c3ccccc23)NC(=O)[C@H](CCCNC(=N)N)NC(=O)[C@@H](Cc2ccccc2)NC(=O)[C@H](CCCNC(=N)N)NC(=O)[C@H](C)N(C)C1=O

These binders were tested against T1, human MC4R receptor (human, UniProt P32245 1-332) (assay: cell-based or functional assay).
T1 sequence (P32245 whole entry): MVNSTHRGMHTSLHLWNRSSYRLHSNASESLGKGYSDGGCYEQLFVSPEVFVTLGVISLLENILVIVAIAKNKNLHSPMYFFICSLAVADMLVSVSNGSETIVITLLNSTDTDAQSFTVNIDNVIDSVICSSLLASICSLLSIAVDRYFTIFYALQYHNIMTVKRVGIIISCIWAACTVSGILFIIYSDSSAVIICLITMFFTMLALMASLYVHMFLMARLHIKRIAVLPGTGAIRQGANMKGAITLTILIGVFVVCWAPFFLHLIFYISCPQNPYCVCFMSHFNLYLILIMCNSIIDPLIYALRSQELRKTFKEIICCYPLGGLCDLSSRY

| cAMP EC50 | % max activation | Binder |
| --- | --- | --- |
| 1.4 nM | – | B1 |
| 2.4 nM | – | B2 |
| 18 nM | 31% | B3 |
| 2.6 nM | 74% | B4 |
| 2 nM | – | B5 |
| 429 nM | – | B6 |
| 249 nM | – | B7 |

The binders below were run against T2, human MC3R (human, UniProt P41968 1-323) (assay: cell-based or functional assay).
T2 sequence (P41968 whole entry): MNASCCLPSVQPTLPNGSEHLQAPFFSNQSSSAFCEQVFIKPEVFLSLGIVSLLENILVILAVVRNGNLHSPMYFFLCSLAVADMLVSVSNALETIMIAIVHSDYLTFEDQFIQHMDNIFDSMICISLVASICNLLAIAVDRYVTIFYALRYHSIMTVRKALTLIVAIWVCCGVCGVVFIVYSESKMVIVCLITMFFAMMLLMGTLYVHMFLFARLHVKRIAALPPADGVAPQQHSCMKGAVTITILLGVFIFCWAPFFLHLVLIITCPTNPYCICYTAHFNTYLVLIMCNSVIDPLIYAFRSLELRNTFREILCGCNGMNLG

| cAMP EC50 | % max activation | Binder |
| --- | --- | --- |
| 3.9 nM | – | B1 |
| 3.5 nM | 11% | B8 |
| 6 nM | – | B2 |
| 3.5 nM | 16% | B3 |
| 4.1 nM | 15% | B4 |
| 4.5 nM | – | B5 |
| 45 nM | – | B6 |
| 74 nM | – | B7 |
| 3.4 nM | 18% | B9 |

Biological target: T1, human MC4R receptor
Test: cell-based or functional assay
Remark: another data set of the same source

| % max activation | cAMP EC50 | Binder |
| --- | --- | --- |
| 91% | 262 nM | B10 |
| 94% | 0.77 nM | B11 |
| 92% | 97 nM | B12 |
| 91% | 128 nM | B13 |
| 98% | 27 nM | B14 |
| 105% | 36 nM | B15 |
| 92% | 13 nM | B16 |

Biological target: T2, human MC3R
Test: cell-based or functional assay
Remark: another data set of the same source

| % max activation | cAMP EC50 | Binder |
| --- | --- | --- |
| 24% | 568 nM | B10 |
| 43% | 50 nM | B11 |
| 44% | 28 nM | B12 |
| 45% | 1040 nM | B13 |
| 14% | 52 nM | B14 |
| 86% | 418 nM | B15 |
| 39% | 121 nM | B16 |

Biological target: T1, human MC4R receptor
Test: cell-based or functional assay
Remark: another data set of the same source

| MC4R selectivity vs MC1R | MC4R selectivity vs MC3R | Binder |
| --- | --- | --- |
| 3.4 | 2.16 | B10 |
| 281 | 66 | B11 |
| 0.44 | 0.29 | B12 |
| 0.15 | 8.11 | B13 |
| 2.49 | 1.88 | B14 |
| 1.13 | 12 | B15 |
| 2.56 | 9.31 | B16 |
